Where a chain is given by its changes, count along the chain named.

First the molecules themselves.
T1: human OX40 on cells (CHO-K1/hu OX40) (human, UniProt P43489 29-277)
T1 construct: whole, on cells; Also used here for OX40 on the HEK293/OX40/NF-kb reporter cells and on human T cells in the functional assays; also called CHO-K1/OX40; human OX40 cells
T1 sequence (looked up): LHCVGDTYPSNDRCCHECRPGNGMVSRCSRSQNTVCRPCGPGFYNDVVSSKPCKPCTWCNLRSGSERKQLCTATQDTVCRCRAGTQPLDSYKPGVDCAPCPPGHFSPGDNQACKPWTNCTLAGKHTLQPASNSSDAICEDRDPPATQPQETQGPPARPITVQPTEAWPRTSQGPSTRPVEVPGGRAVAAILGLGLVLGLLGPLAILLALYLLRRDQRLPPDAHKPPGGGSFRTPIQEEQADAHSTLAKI

T2: human OX40 protein (Acro biosystem, #OX0-H5224) (human, UniProt P43489 29-216)
T2 construct: Bought recombinant protein
T2 sequence (looked up): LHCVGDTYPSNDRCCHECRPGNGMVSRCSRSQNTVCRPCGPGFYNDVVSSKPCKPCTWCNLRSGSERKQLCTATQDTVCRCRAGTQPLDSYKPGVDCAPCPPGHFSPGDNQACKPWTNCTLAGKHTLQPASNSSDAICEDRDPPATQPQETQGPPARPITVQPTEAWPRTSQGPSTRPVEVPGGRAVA

B1: PR002071 (antibody, human IgG1, V domains shown)
VH: EVQLVESGGGLVQPGGSLRLSCAASGFTFSSYAMSWVRQAPGKGLEWVSAISGGGGSIFYADSVRGRFTISRDNSKNTLYLQMNSLRAEDTAVYYCANGMTGTTDVDYWGQGTLVTVSS
notes: no light chain; also called anti-OX40 HCAb antibody
B2: PR002072 (antibody, human IgG1, V domains shown)
VH: B1 VH with V5L, P41S, V48I, G54S, I58T, F59Y, E89D, Y108F, L114P
notes: as for B1
B3: PR002076 (antibody, human IgG1, V domains shown)
VH: B1 VH with V5L, G54S, S57N, I58T, F59Y, L114R
notes: as for B1
B4: PR002058 (antibody, human IgG1, V domains shown)
VH: EVQLLESGGGLVQPGGSLRLSCAASGFTFSSYAMSWVRQAPGKGLEWVSAISGGSGSTFYADSVRGRFTISRDNSKNTLYLQMNSLRAEDTAVYYCADGVTGTDFDFWGQGTLVTVSS
notes: as for B1
B5: PR002073 (antibody, human IgG1, V domains shown)
VH: B4 VH with L5V
notes: as for B1
B6: PR002074 (antibody, human IgG1, V domains shown)
VH: EVQLLESGGGLVQPGGSLRLSCAASGFTFSSYAMSWVRQAPGKGLEWVSGISGGGNNTFYADSVRGRFTISRDNSKNTLYLQMNSLRAEDTAVYYCMRGWELPLLENWGQGTLVTVSS
notes: as for B1

The target in one test is T1, human OX40 on cells (CHO-K1/hu OX40). Kind of test: FACS, blocking of biotin-human OX40L on CHO-K1/hu OX40 cells. On the procedure: Briefly, the CHO-K1/hu OX40 cells were digested and resuspended in an F-12K complete medium, and the cell density was adjusted to 1×10⁶ cells/mL. The cells were seeded in a 96-well V-bottom plate (Corning, #3894) at 100 μL/well, and centrifuged, and then the supernatant was discarded. The test antigen-binding proteins diluted in a 3-fold gradient at concentrations that were 2 times the final concentrations were added at 100 μL/well, and the mixture was well mixed, wherein the antigen-binding protein had the highest final concentration of 100 nM, and a total of 8 concentrations were obtained. […] The cells were incubated at 4° C. for 1 h away from light. Thereafter, the cells were centrifuged at 4° C. for 5 min, and then the supernatant was discarded. […] The cells in each well were rinsed twice with 100 μL of pre-cooled PBS, and centrifuged at 500 g at 4° C. for 5 min, and then the supernatant was discarded. A 1:200 fluorescent secondary antibody PE Streptavidin (BD Biosciences, #554061) was added at 100 μL/well, and the cells were incubated away from light at 4° C. for 30 min. The cells in each well were rinsed twice with 200 μL of pre-cooled PBS, and centrifuged at 500 g at 4° C. for 5 min, and then the supernatant was discarded. Finally, the cells in each well were resuspended in 200 μL of precooled PBS. Fluorescence signal values were read using BD FACS CANTOII, and IC50 was calculated. Inhibition rate %={average MFI of non-blocking control well−MFI value of OX40 antibody}/{(average MFI of non-blocking control well)−average MFI of 100% blocking control well)}×100%.
On the technique in general: A flow cytometer gives signals particle by particle.
Regarding B1, the IC50 was determined as 51.7 nM and the “Maximum inhibition rate (%)” value came out at 50%.

For B2, the “Maximum inhibition rate (%)” value was found to be 14%.

Regarding B3, the “Maximum inhibition rate (%)” value stood at 0%.

With B4, half-maximal inhibition (IC50) was put at 98.1 nM and the “Maximum inhibition rate (%)” value is 38%.

For the molecule B5, inhibition was half-maximal at 75.2 nM (IC50) and the “Maximum inhibition rate (%)” value worked out at 24%.

On to B6, for which the IC50 is 43.1 nM and the “Maximum inhibition rate (%)” value amounted to 81%.

A further test concerns the target T3, cynomolgus monkey OX40 protein (Novoprotein, #CB17) (cynomolgus monkey).
T3 construct: Bought recombinant protein; also called cyno OX40
Briefly: ELISA, coated cyno OX40 protein. On the procedure: (§1) This example is intended to investigate the in vitro binding activity of the anti-OX40 HCAb monoclonal antibodies prepared in Example 1 to human and cynomolgus monkey OX40 proteins. The antibody binding assay at the protein level was performed using a human OX40 protein (Acro biosystem, #OX0-H5224) and a cynomolgus monkey OX40 protein (Novoprotein, #CB17). Briefly, a 384-well plate (PerkinElmer, #6007509) was coated with 1 μg/mL human OX40 protein and a cynomolgus monkey OX40 protein dissolved in PBS at 20 μL/well, and incubated at 4° C. overnight. The next day, the 384-well plate was washed three times with PBS containing 0.05% Tween (MEDICAGO, #09-9410-100), and blocked with PBS containing 2% milk (Bio-Rad, #170-6404) at 37° C. for 1 h. […] The plate was added with a stop buffer (BBI life sciences, #E661006-0200) at 20 μL/well, and read for OD₄₅₀₋₆₅₀ values using a plate reader (Molecular Devices, model: SpectraMax Plus). The values were analyzed with Graphad 8.0 and plotted.
With B1, the EC50 is 0.202 nM and the “Maximum OD” value worked out at 2.93 OD.

For B2, the EC50 worked out at 0.217 nM and the “Maximum OD” value was 2.97 OD.

Take B3: the EC50 was determined as 0.116 nM and the “Maximum OD” value amounted to 2.05 OD.

In the case of B4, the EC50 was 0.0597 nM and the “Maximum OD” value was 1.76 OD.

For the molecule B5, the EC50 was 0.146 nM and the “Maximum OD” value turned out to be 2.55 OD.

Regarding B6, the EC50 came out at 0.14 nM and the “Maximum OD” value came to 2.34 OD.

For another test, the target named is T2, human OX40 protein (Acro biosystem, …). Briefly: ELISA, coated human OX40 protein. How it is done: as §1
(In general: In an ELISA, binding on a coated surface is turned into a signal by an enzyme label.)
On to B1, for which it took 0.0502 nM to reach a half-maximal effect (EC50) and the “Maximum OD” value amounted to 2.45 OD.

On to B2, for which the EC50 was 0.0577 nM and the “Maximum OD” value was 2.47 OD.

B3: the EC50 was 0.065 nM and the “Maximum OD” value came out at 2.8 OD.

With B4, the 50% effective concentration (EC50) was 0.0629 nM and the “Maximum OD” value stood at 1.94 OD.

Consider B5, for which the EC50 is 0.085 nM and the “Maximum OD” value came to 2.38 OD.

With B6, the EC50 came to 0.0512 nM and the “Maximum OD” value worked out at 2.35 OD.

Another test has as its target T1, human OX40 on cells (CHO-K1/hu OX40). Briefly: FACS, CHO-K1/hu OX40 cells. On the procedure:
This example is intended to investigate the in vitro binding activity of anti-human OX40 HCAb monoclonal antibodies to human OX40. The antibody binding assay at the cellular level was performed using a stable CHO-K1 cell strain overexpressing human OX40 (CHO-K1/hu OX40). Briefly, the CHO-K1/hu OX40 cells were digested, resuspended in an F12K complete medium and washed once with PBS. The cell density was adjusted to 1×10⁶ cells/mL with PBS. The cells were seeded in a 96-well V-bottom plate (Corning, #3894) at 100 μL/well, and centrifuged, and then the supernatant was discarded. Then, the test antibodies diluted in a 3-fold gradient at concentrations that were 2 times the final concentrations were added at 100 μL/well. The cells were incubated at 4° C. for 1 h away from light. Thereafter, the cells in each well were rinsed twice with 100 μL of pre-cooled PBS, and centrifuged at 500 g at 4° C. for 5 min, and then the supernatant was discarded. […] The plate was incubated away from light at 4° C. for 30 min. The cells in each well were rinsed twice with 100 μL of pre-cooled PBS, and centrifuged at 500 g at 4° C. for 5 min, and then the supernatant was discarded. Finally, the cells in each well were resuspended in 200 μL of pre-cooled PBS, and the fluorescence signal values were read using a BD FACS CANTOII.
With B1, the EC50 turned out to be 4 nM and the “Maximum MFI” value came out at 3060 MFI.

In the case of B2, a half-maximal response (EC50) required 5.64 nM and the “Maximum MFI” value is 1400 MFI.

With B3, a half-maximal response (EC50) required 24.6 nM and the “Maximum MFI” value came out at 1380 MFI.

Take B4: a half-maximal response (EC50) required 5.79 nM and the “Maximum MFI” value came to 3560 MFI.

For B5, the midpoint of the response, the EC50, lay at 6.55 nM and the “Maximum MFI” value came out at 3260 MFI.

Regarding B6, it took 1.27 nM to reach a half-maximal effect (EC50) and the “Maximum MFI” value was found to be 3540 MFI.

The target is the same in another test. Briefly: cell-based or functional assay.
Regarding B1, the “EC50, HEK293/OX40/NF-kb luciferase reporter” value stood at 7.85 nM and the “Maximum fluorescence signal value, HEK293/OX40/NF-kb luciferase reporter” value (“Maximum fluorescence signal value” for short) amounted to 144000 luminescence.

As for B2, the “EC50, HEK293/OX40/NF-kb luciferase reporter” value stood at 14.2 nM and the “Maximum fluorescence signal value” value came to 99600 luminescence.

B3: the “EC50, HEK293/OX40/NF-kb luciferase reporter” value was found to be 67 nM and the “Maximum fluorescence signal value” value was 141000 luminescence.

Consider B4, for which the “EC50, HEK293/OX40/NF-kb luciferase reporter” value was determined as 4.29 nM and the “Maximum fluorescence signal value” value was 136000 luminescence.

Turning to B5, the “EC50, HEK293/OX40/NF-kb luciferase reporter” value came to 6.39 nM and the “Maximum fluorescence signal value” value worked out at 121000 luminescence.

In the case of B6, the “EC50, HEK293/OX40/NF-kb luciferase reporter” value was 3.08 nM and the “Maximum fluorescence signal value” value was 84800 luminescence.

Usually IC50 stands for the midpoint of a concentration-inhibition curve. For orientation: EC50 means the concentration needed to bring the measured effect to its halfway point.

These data come from patent publication US20230295324A1 (published 2023).
